# From US20110305750
# System: GST-MT1-MMP cytoplasmic tail fusion protein
substance,measurement,value
recombinant Src kinase,tyrosine phosphorylation of GST-MT in an in vitro phosphorylation assay (western blot),Src-mediated tyrosine phosphorylation of GST-MT
